B1: Ribonuclease, P00648 (parent)
chain: MMKMEGIALKKRLSWISVCLLVLVSAAGMLFSTAAKTETSSHKAHTEAQVINTFDGVADYLQTYHKLPDNYITKSEAQALGWVASKGNLADVAPGKSIGGDIFSNREGKLPGKSGRTWREADINYTSGFRNSDRILYSSDWLIYKTTDHYQTFTKIR

The data set covers variants of B1. The note with it: Bacillus amyloliquefaciens; pH 6.3; 25 °C; Urea; Fluorescence; MES 19.3 mM; reversible: yes; structure 1BNI; whole UniProt chain shown.
For the variant MMKMEGIALKKRLSWISVCLLVLVSAAGMLFSTAAKTETSSHKAHTEAQVINQFDGVADYLQTYHKLPDNYITKSEAQALGWVASKGNLADVAPGKSIGGDIFSNREGKLPGKSGRTWREADINYTSGFRNSDRILYSSDWLIYKTTDHYQTFTKIR [T53Q], the “ddG of mutation (higher = less stable)” value turned out to be 1.87 kcal/mol. For MMKMEGIALKKRLSWISVCLLVLVSAAGMLFSTAAKTETSSHKAHTEAQVINEFDGVADYLQTYHKLPDNYITKSEAQALGWVASKGNLADVAPGKSIGGDIFSNREGKLPGKSGRTWREADINYTSGFRNSDRILYSSDWLIYKTTDHYQTFTKIR [T53E] the value was 0.27 kcal/mol; for MMKMEGIALKKRLSWISVCLLVLVSAAGMLFSTAAKTETSSHKAHTEAQVINSFDGVADYLQTYHKLPDNYITKSEAQALGWVASKGNLADVAPGKSIGGDIFSNREGKLPGKSGRTWREADINYTSGFRNSDRILYSSDWLIYKTTDHYQTFTKIR [T53S], 0.22 kcal/mol; for MMKMEGIALKKRLSWISVCLLVLVSAAGMLFSTAAKTETSSHKAHTEAQVINDFDGVADYLQTYHKLPDNYITKSEAQALGWVASKGNLADVAPGKSIGGDIFSNREGKLPGKSGRTWREADINYTSGFRNSDRILYSSDWLIYKTTDHYQTFTKIR [T53D], -0.11 kcal/mol.

As for MMKMEGIALKKRLSWISVCLLVLVSAAGMLFSTAAKTETSSHKAHTEAQVINGFDGVADYLQTYHKLPDNYITKSEAQALGWVASKGNLADVAPGKSIGGDIFSNREGKLPGKSGRTWREADINYTSGFRNSDRILYSSDWLIYKTTDHYQTFTKIR [T53G], the “ddG of mutation (higher = less stable)” value was 1.34 kcal/mol.

On to MMKMEGIALKKRLSWISVCLLVLVSAAGMLFSTAAKTETSSHKAHTEAQVINNFDGVADYLQTYHKLPDNYITKSEAQALGWVASKGNLADVAPGKSIGGDIFSNREGKLPGKSGRTWREADINYTSGFRNSDRILYSSDWLIYKTTDHYQTFTKIR [T53N], for which the “ddG of mutation (higher = less stable)” value is 1.27 kcal/mol.

MMKMEGIALKKRLSWISVCLLVLVSAAGMLFSTAAKTETSSHKAHTEAQVINAFDGVADYLQTYHKLPDNYITKSEAQALGWVASKGNLADVAPGKSIGGDIFSNREGKLPGKSGRTWREADINYTSGFRNSDRILYSSDWLIYKTTDHYQTFTKIR [T53A]: the “ddG of mutation (higher = less stable)” value worked out at 2.53 kcal/mol. The same measure for MMKMEGIALKKRLSWISVCLLVLVSAAGMLFSTAAKTETSSHKAHTEAQVINTFDGVADYLQTYHKLPDNYIGKSEAQALGWVASKGNLADVAPGKSIGGDIFSNREGKLPGKSGRTWREADINYTSGFRNSDRILYSSDWLIYKTTDHYQTFTKIR [T73G]: 1.58 kcal/mol; for MMKMEGIALKKRLSWISVCLLVLVSAAGMLFSTAAKTETSSHKAHTEAQVINTFDGVADYLQTYHKLPDNYIQKSEAQALGWVASKGNLADVAPGKSIGGDIFSNREGKLPGKSGRTWREADINYTSGFRNSDRILYSSDWLIYKTTDHYQTFTKIR [T73Q]: 1.72 kcal/mol; for MMKMEGIALKKRLSWISVCLLVLVSAAGMLFSTAAKTETSSHKAHTEAQVINTFDGVADYLQTYHKLPDNYIAKSEAQALGWVASKGNLADVAPGKSIGGDIFSNREGKLPGKSGRTWREADINYTSGFRNSDRILYSSDWLIYKTTDHYQTFTKIR [T73A]: 2.11 kcal/mol. For MMKMEGIALKKRLSWISVCLLVLVSAAGMLFSTAAKTETSSHKAHTEAQVINTFDGVADYLQTYHKLPDNYINKSEAQALGWVASKGNLADVAPGKSIGGDIFSNREGKLPGKSGRTWREADINYTSGFRNSDRILYSSDWLIYKTTDHYQTFTKIR [T73N] the value was 1.29 kcal/mol; for MMKMEGIALKKRLSWISVCLLVLVSAAGMLFSTAAKTETSSHKAHTEAQVINTFDGVADYLQTYHKLPDNYIVKSEAQALGWVASKGNLADVAPGKSIGGDIFSNREGKLPGKSGRTWREADINYTSGFRNSDRILYSSDWLIYKTTDHYQTFTKIR [T73V], 2.31 kcal/mol; for MMKMEGIALKKRLSWISVCLLVLVSAAGMLFSTAAKTETSSHKAHTEAQVINTFDGVADYLQTYHKLPDNYIEKSEAQALGWVASKGNLADVAPGKSIGGDIFSNREGKLPGKSGRTWREADINYTSGFRNSDRILYSSDWLIYKTTDHYQTFTKIR [T73E], 0.05 kcal/mol.

The values above are taken from FireProtDB (doi:10.1038/342296a0).
